Experimental findings from patent US7037670B2, “Peptide substrates for assay of extracellular signal-regulated protein kinase 1 and 2 activity” (Board of Supervisors of Louisiana State University and …, priority 2002, dated 2006) are described below.

Type in all cases: biochemical
The target in test [1] is T1, ERK2 (Rattus norvegicus, UniProt P63086). In words: Phosphorylation of TH Ser31-containing peptides by purified, recombinant, activated ERK2. The settings on record: for RELATIVE 32P INCORPORATION (% 3.3 μmol/min/mg): substrate 1 mM, median of three determinations; for RELATIVE 32P INCORPORATION (% 3.0 μmol/min/mg) Mean: mean of four determinations. The text has this: Materials: Purified peptides were obtained from Sigma (St. Louis, Mo.) or custom synthesized by Louisiana State University Health Science Center Core Laboratories (New Orleans La.). Purified, activated ERK1 was a gift from Dr. M. H. Cobb (University of Texas Southwestern Medical Center, Dallas, Tex.). Purified, recombinant, activated ERK2 was a gift from Dr. N. G. Ahn (University of Colorado, Boulder, Colo.). Except as indicated below, other materials were purchased from Sigma. The new synthetic peptides modeled after […] in human tyrosine hydroxylase are indicated. ERK activity assays: Aliquots of supernatants or ERK1/2 immunoprecipitates (suspended in lysis solution) were mixed with substrate (1 mM final, unless stated otherwise) at 4° C. Phosphorylation reactions were initiated by addition of an equal volume of assay buffer containing [γ-^32P]ATP (NEN Life Sciences Products, now PerkinElmer Life Sciences, Boston, Mass.) and Mg^++ and allowed to proceed for 10 min at 30° C., after which duplicate 20 μl aliquots were spotted onto Whatman P81 paper. As would be predicted by the presence of multiple basic residues in the peptides, the ability of P81 paper to bind >90% of each of the peptides used in Tables 2 and 3 was confirmed by UV detection following RP-HPLC. The final reaction mixtures (50 μl) contained 50 mM β-glycerophosphate, 10 mM MgCl2, 1 mM EGTA, 1 mM dithiothreitol, 1 mM benzamidine, 0.1 mM ATP, 0.1 mM Na3VO4, 10 μM calmidazolium, 2 μM peptide inhibitor of cyclic AMP-dependent protein kinase ([…] ID NO: 24), 10 μg/ml leupeptin, and 0.025% Tween 20. Table 3 indicates the relative phosphorylation of TH-[…]-containing peptides by purified ERK2. […] These new substrates were assayed for the relative phosphorylation by purified ERK2 similar to the experiments that generated Table 3.

Test [2] deals with T1, ERK2. Briefly: Steady-state kinetic analyses of peptide substrates for ERK2. The settings on record: median of three determinations; for Vmax(app) Relative: relative values. As for the experimental part: (§1) ERK activity assays: Aliquots of supernatants or ERK1/2 immunoprecipitates (suspended in lysis solution) were mixed with substrate (1 mM final, unless stated otherwise) at 4° C. Phosphorylation reactions were initiated by addition of an equal volume of assay buffer containing [γ-^32P]ATP (NEN Life Sciences Products, now PerkinElmer Life Sciences, Boston, Mass.) and Mg^++ and allowed to proceed for 10 min at 30° C., after which duplicate 20 μl aliquots were spotted onto Whatman P81 paper. As would be predicted by the presence of multiple basic residues in the peptides, the ability of P81 paper to bind >90% of each of the peptides used in Tables 2 and 3 was confirmed by UV detection following RP-HPLC. The final reaction mixtures (50 μl) contained 50 mM β-glycerophosphate, 10 mM MgCl2, 1 mM EGTA, 1 mM dithiothreitol, 1 mM benzamidine, 0.1 mM ATP, 0.1 mM Na3VO4, 10 μM calmidazolium, 2 μM peptide inhibitor of cyclic AMP-dependent protein kinase ([…], SEQ ID NO: 24), 10 μg/ml leupeptin, and 0.025% Tween 20.
In Table 5, each value represents the median of three independent determinations, performed in duplicate. […] See I. Kameshita et al., 1997. […] 355, pp. 5641-5646 (1996); see also C. N. Prowse et al., “Catalytic reaction pathway for the mitogen-activated protein kinase ERK2,” Biochem., vol. 39, pp. 6258-6266 (2000).

Test [3] addresses ERK1 (Rattus norvegicus, UniProt P21708). Briefly: Phosphorylation of substrates by purified, activated ERK1 (32P incorporation, P81 paper). The settings on record: peptides 1 mM, MBP 20 μM, 10 min at 30° C., median of three determinations.
Source text: Materials: Purified peptides were obtained from Sigma (St. Louis, Mo.) or custom synthesized by Louisiana State University Health Science Center Core Laboratories (New Orleans La.). Purified, activated ERK1 was a gift from Dr. M. H. Cobb (University of Texas Southwestern Medical Center, Dallas, Tex.). Purified, recombinant, activated ERK2 was a gift from Dr. N. G. Ahn (University of Colorado, Boulder, Colo.). Except as indicated below, other materials were purchased from Sigma. The new synthetic peptides modeled after Ser31 in human tyrosine hydroxylase are indicated.
as §1
To test the effectiveness of various peptide substrates, peptide substrates were compared with myelin basic protein (“MBP,” SEQ ED NO: 1) for relative ability to be phosphorylated by purified ERK1 or ERK2. The ERK activity assay was as described above in Example 1. In Table 2, each value represents the median of three independent determinations, performed in duplicate. While all peptides were assayed at a concentration of 1 mM, MBP phosphorylation—given as a frame of reference at a concentration typically used in such assays—was assayed at 20 μM. ^32P incorporation into MBPtide (SEQ ID NO: 2) was 330 nmol/min/mg under the assay conditions used.

Ends that are not written are not given here. Bounds are passed on as bounds.

T1 sequence (P63086 2-358 limits assumed): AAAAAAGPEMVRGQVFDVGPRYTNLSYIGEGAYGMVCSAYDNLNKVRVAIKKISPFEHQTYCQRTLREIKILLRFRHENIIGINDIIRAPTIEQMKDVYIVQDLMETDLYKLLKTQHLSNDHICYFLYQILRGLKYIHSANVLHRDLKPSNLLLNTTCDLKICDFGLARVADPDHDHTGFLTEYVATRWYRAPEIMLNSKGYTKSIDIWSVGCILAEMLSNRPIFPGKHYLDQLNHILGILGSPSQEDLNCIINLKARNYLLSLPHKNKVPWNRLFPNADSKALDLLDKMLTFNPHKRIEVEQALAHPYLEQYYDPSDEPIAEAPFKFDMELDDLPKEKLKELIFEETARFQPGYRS
Sequence of ERK1 (P21708 2-380 limits assumed): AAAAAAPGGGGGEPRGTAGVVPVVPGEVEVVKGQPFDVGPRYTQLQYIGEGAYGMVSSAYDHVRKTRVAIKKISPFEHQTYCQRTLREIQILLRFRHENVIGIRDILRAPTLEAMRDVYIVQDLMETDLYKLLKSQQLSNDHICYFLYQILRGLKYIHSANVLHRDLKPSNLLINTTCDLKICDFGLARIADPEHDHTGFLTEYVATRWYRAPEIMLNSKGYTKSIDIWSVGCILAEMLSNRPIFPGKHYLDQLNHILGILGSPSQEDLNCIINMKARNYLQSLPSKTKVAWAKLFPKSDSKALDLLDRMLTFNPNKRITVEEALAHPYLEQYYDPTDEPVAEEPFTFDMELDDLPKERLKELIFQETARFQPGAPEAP

With “AIMSPRFIGRR (This sequence is based on TH-31 type 1 HUMAN.) [SEQ ID NO: 11]”, the “RELATIVE 32P INCORPORATION (% 3.3 μmol/min/mg)” value in test [1] is listed as 29 % 3.3 μmol/min/mg.

As to “AVTSPRFIGRR (This sequence is based on TH-Ser31 (rat).) [SEQ ID NO: 8]”, the “RELATIVE 32P INCORPORATION (% 3.3 μmol/min/mg)” value in test [1] is reported as 9 % 3.3 μmol/min/mg. Consider “EAIMSPRFIGRR (This sequence is based on TH-31 type 1 HUMAN.) [SEQ ID NO: 12]”, for which the “RELATIVE 32P INCORPORATION (% 3.3 μmol/min/mg)” value in test [1] turned out to be 41 % 3.3 μmol/min/mg. On to “EAIMSPRFK (This sequence is based on TH-31 type 1 HUMAN.) [SEQ ID NO: 10]”, for which the “RELATIVE 32P INCORPORATION (% 3.3 μmol/min/mg)” value in test [1] was determined as 21 % 3.3 μmol/min/mg. In addition, in test [2], the “Kmin(app)” value was found to be 1.4 mM and the “Vmax(app) Relative” value amounted to 42. Consider “EAIMVRGQSPRFK (This sequence is based on TH-Ser31 type 2 HUMAN.) [SEQ ID NO: 22]”, for which, in test [1], the “RELATIVE 32P INCORPORATION (% 3.3 μmol/min/mg)” value is 2 % 3.3 μmol/min/mg. “EAVTSPRFIGRR (This sequence is based on TH-Ser31 (rat).) [SEQ ID NO: 9]”: the “RELATIVE 32P INCORPORATION (% 3.3 μmol/min/mg)” value in test [1] stood at 20 % 3.3 μmol/min/mg. As to “GRRQSLIEDAR (This sequence is TH (rat) Ser40.) [SEQ ID NO: 6]”, the “RELATIVE 32P INCORPORATION (% OF MBP)” value in test [3] was less than 1 % OF MBP. For “IMVRGQSPR (This sequence is based on TH-Ser31 type 2 HUMAN.) [SEQ ID NO: 20]”, the “RELATIVE 32P INCORPORATION (% 3.3 μmol/min/mg)” value in test [1] is given as 1 % 3.3 μmol/min/mg. With “KQAEAVTSPR (This sequence is based on TH-Ser31 (rat).) [SEQ ID NO: 7]”, the “RELATIVE 32P INCORPORATION (% 3.3 μmol/min/mg)” value in test [1] was 7 % 3.3 μmol/min/mg. Besides, the “RELATIVE 32P INCORPORATION (% OF MBP)” value in test [3] was 5 % OF MBP. Besides, in test [2], the “Kmin(app)” value worked out at 1.8 mM and the “Vmax(app) Relative” value is recorded as 9. For “PTPSAPSPQPK (This sequence is TH (rat) Ser8.) [SEQ ID NO: 4]”, the “RELATIVE 32P INCORPORATION (% OF MBP)” value in test [3] is listed as less than 1 % OF MBP. For QAEAIMSPRFGRR-NH2 [SEQ ID NO: 15], the “RELATIVE 32P INCORPORATION (% 3.0 μmol/min/mg) Mean” value in test [1] was determined as 107 % 3.0 μmol/min/mg.

Take QATGPLSPGFRR-NH2 [SEQ ID NO: 19]: the “RELATIVE 32P INCORPORATION (% 3.0 μmol/min/mg) Mean” value in test [1] is 182 % 3.0 μmol/min/mg.

Take QATGPLSPGPFRR-NH2 [SEQ ID NO: 17]: in test [1], the “RELATIVE 32P INCORPORATION (% 3.0 μmol/min/mg) Mean” value is reported as 143 % 3.0 μmol/min/mg.

As to “RRAVSEQDAK (This sequence is TH (rat) Ser19.) [SEQ ID NO: 5]”, the “RELATIVE 32P INCORPORATION (% OF MBP)” value in test [3] is less than 1 % OF MBP.

In the case of “RRELVEPLTPSGEA (This sequence is EGF Receptor (Thr669).) [SEQ ID NO: 3]”, the “RELATIVE 32P INCORPORATION (% OF MBP)” value in test [3] is reported as 13 % OF MBP. Regarding “YIMVRGQSPR (This sequence is based on TH-Ser31 type 2 HUMAN.) [SEQ ID NO: 21]”, in test [1], the “RELATIVE 32P INCORPORATION (% 3.3 μmol/min/mg)” value worked out at 1 % 3.3 μmol/min/mg.

As for YQAEAIMSPRFIGRR-NH2 [SEQ ID NO: 14], in test [1], the “RELATIVE 32P INCORPORATION (% 3.0 μmol/min/mg) Mean” value worked out at 117 % 3.0 μmol/min/mg and the “RELATIVE 32P INCORPORATION (% 3.3 μmol/min/mg)” value was 100 % 3.3 μmol/min/mg. For the substance YQATGPLSPGFRR-NH2 [SEQ ID NO: 18], in test [1], the “RELATIVE 32P INCORPORATION (% 3.0 μmol/min/mg) Mean” value came out at 215 % 3.0 μmol/min/mg. The same measure, in the same setting: the same measure for YQATGPLSPGPFRR-NH2 [SEQ ID NO: 16]: 164 % 3.0 μmol/min/mg.
